This series concerns the molecule itself. Nature of the series: cryo-EM structure.

Values joined by “and” are separate entries in the source; they are usually repeats but may differ in a detail not shown here. Equal entries are not always repeated.

B1: human polymerase theta helicase domain (PolθH, residues 2–894) (domain or fragment, UniProt O75417 2-894, looked up)
chain: NLLRRSGKRRRSESGSDSFSGSGGDSSASPQFLSGSVLSPPPGLGRCLKAAAAGECKPTVPDYERDKLLLANWGLPKAVLEKYHSFGVKKMFEWQAECLLLGQVLEGKNLVYSAPTSAGKTLVAELLILKRVLEMRKKALFILPFVSVAKEKKYYLQSLFQEVGIKVDGYMGSTSPSRHFSSLDIAVCTIERANGLINRLIEENKMDLLGMVVVDELHMLGDSHRGYLLELLLTKICYITRKSASCQADLASSLSNAVQIVGMSATLPNLELVASWLNAELYHTDFRPVPLLESVKVGNSIYDSSMKLVREFEPMLQVKGDEDHVVSLCYETICDNHSVLLFCPSKKWCEKLADIIAREFYNLHHQAEGLVKPSECPPVILEQKELLEVMDQLRRLPSGLDSVLQKTVPWGVAFHHAGLTFEERDIIEGAFRQGLIRVLAATSTLSSGVNLPARRVIIRTPIFGGRPLDILTYKQMVGRAGRKGVDTVGESILICKNSEKSKGIALLQGSLKPVRSCLQRREGEEVTGSMIRAILEIIVGGVASTSQDMHTYAACTFLAASMKEGKQGIQRNQESVQLGAIEACVMWLLENEFIQSTEASDGTEGKVYHPTHLGSATLSSSLSPADTLDIFADLQRAMKGFVLENDLHILYLVTPMFEDWTTIDWYRFFCLWEKLPTSMKRVAELVGVEEGFLARCVKGKVVARTERQHRQMAIHKRFFTSLVLLDLISEVPLREINQKYGCNRGQIQSLQQSAAVYAGMITVFSNRLGWHNMELLLSQFQKRLTFGIQRELCDLVRVSLLNAQRARVLYASGFHTVADLARANIVEVEVILKNAVPFKSARKAVDEEEEAVEERRNMRTIWVTGRKGLTEREAAALIVEEARMILQQDLVEM
Take B1: the “stoichiometry N” value was 4 and 2.

(Values after publication PMC11071473 (bioRxiv, 2024).)
